Data on seven molecules can be found in publication PMC3176292, “Mutations in Protein-Binding Hot-Spots on the Hub Protein Smad3 Differentially Affect Its Protein Interactions and Smad3-Regulated Gene Expression” (PLoS ONE, 2011).

What all share (assay): co-IP; LUMIER: Renilla luciferase-Smad3 and Flag-tagged partner co-expressed with constitutively active Alk5 in HEK-293; Flag protein captured from cleared lysate (TNE: 10 mM Tris-HCl pH 7.8, 150 mM NaCl, 1 mM EDTA, 1% Igepal CA-630) on anti-Flag 96-well plates, 2 h at 4 °C; co-precipitated Renilla luciferase activity, TrxGA background subtracted, percent of wild-type Smad3
Conditions in all cases: partners not purified

Experiment [1] deals with T1, Ski Smad-binding domain (amino acids 2–56) on the 3xFlag-thioredoxin scaffold (UniProt P12755 2-56).
T1 construct: Ski, amino acids 2–56; cloned into the unique RsrII site of pCI-3xFLAG-Trx; also called Ski aa2–56; TrxSki; source: HEK-293, transfected, in lysate
T1 sequence (looked up): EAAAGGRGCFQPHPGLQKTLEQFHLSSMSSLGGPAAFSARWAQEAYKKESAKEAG

Experiment [2] has as its target T2, Smurf2 Smad-binding domain (amino acids 252–330) on the Flag-thioredoxin scaffold (UniProt Q9HAU4 252-330).
T2 construct: Smurf2, amino acids 252–330; also called Smurf2 aa252–330; TrxSmurf2; source: HEK-293, transfected, in lysate

The target in experiment [3] is T3, Flag-Smad4, full length (UniProt Q13485 1-552).
T3 construct: Smad4; plasmid pCMV5-Flag-Smad4 (from J. Massagué); also called Smad4 FL; source: HEK-293, transfected, in lysate
T3 sequence (looked up): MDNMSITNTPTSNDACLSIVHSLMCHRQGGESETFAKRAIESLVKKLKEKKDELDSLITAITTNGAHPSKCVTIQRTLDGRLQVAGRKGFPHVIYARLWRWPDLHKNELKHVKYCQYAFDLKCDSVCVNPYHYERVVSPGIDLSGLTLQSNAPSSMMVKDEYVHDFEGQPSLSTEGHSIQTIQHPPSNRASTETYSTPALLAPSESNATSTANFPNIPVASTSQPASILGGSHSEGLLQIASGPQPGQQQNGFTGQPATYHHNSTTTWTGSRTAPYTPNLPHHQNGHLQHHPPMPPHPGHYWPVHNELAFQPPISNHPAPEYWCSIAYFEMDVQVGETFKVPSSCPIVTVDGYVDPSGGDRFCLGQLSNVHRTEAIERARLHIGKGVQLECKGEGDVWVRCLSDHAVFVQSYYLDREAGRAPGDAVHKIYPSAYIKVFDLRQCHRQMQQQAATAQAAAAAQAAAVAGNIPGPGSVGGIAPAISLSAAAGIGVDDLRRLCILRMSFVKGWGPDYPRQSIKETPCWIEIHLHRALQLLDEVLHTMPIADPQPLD

Experiment [4] concerns the target T4, SARA Smad-binding domain (amino acids 665–721) on the 3xFlag-thioredoxin scaffold (UniProt O95405 767-823).
T4 construct: SARA, amino acids 665–721; cloned into the unique RsrII site of pCI-3xFLAG-Trx; also called SARA aa665–721; TrxSARA; source: HEK-293, transfected, in lysate
T4 sequence (looked up): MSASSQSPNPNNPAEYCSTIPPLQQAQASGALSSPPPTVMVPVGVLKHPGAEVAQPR

For experiment [5], the target named is T2, Smurf2 Smad-binding domain (amino acids …). The source holds these as a separate data set.
Experiment [6] addresses T4, SARA Smad-binding domain (amino acids …). This is another data set of the same source.

T2 sequence (Q9HAU4 252-330): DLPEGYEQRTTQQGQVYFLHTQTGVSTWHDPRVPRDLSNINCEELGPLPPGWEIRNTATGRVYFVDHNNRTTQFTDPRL

B1: Renilla luciferase-Smad3 D408H (natural protein, UniProt P84022 1-425, looked up)
chain: MSSILPFTPPIVKRLLGWKKGEQNGQEEKWCEKAVKSLVKKLKKTGQLDELEKAITTQNVNTKCITIPRSLDGRLQVSHRKGLPHVIYCRLWRWPDLHSHHELRAMELCEFAFNMKKDEVCVNPYHYQRVETPVLPPVLVPRHTEIPAEFPPLDDYSHSIPENTNFPAGIEPQSNIPETPPPGYLSEDGETSDHQMNHSMDAGSPNLSPNPMSPAHNNLDLQPVTYCEPAFWCSISYYELNQRVGETFHASQPSMTVDGFTDPSNSERFCLGLLSNVNRNAAVELTRRHIGRGVRLYYIGGEVFAECLSDSAIFVQSPNCNQRYGWHPATVCKIPPGCNLKIFNNQEFAALLAQSVNQGFEAVYQLTRMCTIRMSFVKGWGAEYRRQTVTSTPCWIELHLNGPLQWLHKVLTQMGSPSIRCSSVS
notes: Smad3; source: HEK-293, transfected together with constitutively active Alk5, in lysate
Consider B1, for which the “percent binding relative to wild-type Smad3” value is 3% in experiment [1], 23% in experiment [2], 3% in experiment [3] and 125% in experiment [4].

B2: Renilla luciferase-Smad3 Y384A (natural protein, UniProt P84022 1-425, looked up)
chain: MSSILPFTPPIVKRLLGWKKGEQNGQEEKWCEKAVKSLVKKLKKTGQLDELEKAITTQNVNTKCITIPRSLDGRLQVSHRKGLPHVIYCRLWRWPDLHSHHELRAMELCEFAFNMKKDEVCVNPYHYQRVETPVLPPVLVPRHTEIPAEFPPLDDYSHSIPENTNFPAGIEPQSNIPETPPPGYLSEDGETSDHQMNHSMDAGSPNLSPNPMSPAHNNLDLQPVTYCEPAFWCSISYYELNQRVGETFHASQPSMTVDGFTDPSNSERFCLGLLSNVNRNAAVELTRRHIGRGVRLYYIGGEVFAECLSDSAIFVQSPNCNQRYGWHPATVCKIPPGCNLKIFNNQEFAALLAQSVNQGFEAVYQLTRMCTIRMSFVKGWGAEARRQTVTSTPCWIELHLNGPLQWLDKVLTQMGSPSIRCSSVS
notes: as for B1
On to B2, for which the entries for the “percent binding relative to wild-type Smad3” value in experiment [5] and in experiment [6] were 24% and 119%, respectively.

B3: Renilla luciferase-Smad3 R268A (natural protein, UniProt P84022 1-425, looked up)
chain: MSSILPFTPPIVKRLLGWKKGEQNGQEEKWCEKAVKSLVKKLKKTGQLDELEKAITTQNVNTKCITIPRSLDGRLQVSHRKGLPHVIYCRLWRWPDLHSHHELRAMELCEFAFNMKKDEVCVNPYHYQRVETPVLPPVLVPRHTEIPAEFPPLDDYSHSIPENTNFPAGIEPQSNIPETPPPGYLSEDGETSDHQMNHSMDAGSPNLSPNPMSPAHNNLDLQPVTYCEPAFWCSISYYELNQRVGETFHASQPSMTVDGFTDPSNSEAFCLGLLSNVNRNAAVELTRRHIGRGVRLYYIGGEVFAECLSDSAIFVQSPNCNQRYGWHPATVCKIPPGCNLKIFNNQEFAALLAQSVNQGFEAVYQLTRMCTIRMSFVKGWGAEYRRQTVTSTPCWIELHLNGPLQWLDKVLTQMGSPSIRCSSVS
notes: as for B1
In the case of B3, the entries for the “percent binding relative to wild-type Smad3” value in experiment [5] and in experiment [6] were 21% and 116%, respectively.

B4: Renilla luciferase-Smad3 R292A (natural protein, UniProt P84022 1-425, looked up)
chain: MSSILPFTPPIVKRLLGWKKGEQNGQEEKWCEKAVKSLVKKLKKTGQLDELEKAITTQNVNTKCITIPRSLDGRLQVSHRKGLPHVIYCRLWRWPDLHSHHELRAMELCEFAFNMKKDEVCVNPYHYQRVETPVLPPVLVPRHTEIPAEFPPLDDYSHSIPENTNFPAGIEPQSNIPETPPPGYLSEDGETSDHQMNHSMDAGSPNLSPNPMSPAHNNLDLQPVTYCEPAFWCSISYYELNQRVGETFHASQPSMTVDGFTDPSNSERFCLGLLSNVNRNAAVELTRRHIGAGVRLYYIGGEVFAECLSDSAIFVQSPNCNQRYGWHPATVCKIPPGCNLKIFNNQEFAALLAQSVNQGFEAVYQLTRMCTIRMSFVKGWGAEYRRQTVTSTPCWIELHLNGPLQWLDKVLTQMGSPSIRCSSVS
notes: as for B1
As to B4, the “percent binding relative to wild-type Smad3” value in experiment [5] stood at 31%; in experiment [6], 78%.

B5: Renilla luciferase-Smad3 Y297A (natural protein, UniProt P84022 1-425, looked up)
chain: MSSILPFTPPIVKRLLGWKKGEQNGQEEKWCEKAVKSLVKKLKKTGQLDELEKAITTQNVNTKCITIPRSLDGRLQVSHRKGLPHVIYCRLWRWPDLHSHHELRAMELCEFAFNMKKDEVCVNPYHYQRVETPVLPPVLVPRHTEIPAEFPPLDDYSHSIPENTNFPAGIEPQSNIPETPPPGYLSEDGETSDHQMNHSMDAGSPNLSPNPMSPAHNNLDLQPVTYCEPAFWCSISYYELNQRVGETFHASQPSMTVDGFTDPSNSERFCLGLLSNVNRNAAVELTRRHIGRGVRLAYIGGEVFAECLSDSAIFVQSPNCNQRYGWHPATVCKIPPGCNLKIFNNQEFAALLAQSVNQGFEAVYQLTRMCTIRMSFVKGWGAEYRRQTVTSTPCWIELHLNGPLQWLDKVLTQMGSPSIRCSSVS
notes: as for B1
For the molecule B5, the “percent binding relative to wild-type Smad3” value in experiment [1] worked out at 1%; in experiment [2], 119%; in experiment [3], 181%; in experiment [4], 8%.

B6: Renilla luciferase-Smad3 Y238A (natural protein, UniProt P84022 1-425, looked up)
chain: MSSILPFTPPIVKRLLGWKKGEQNGQEEKWCEKAVKSLVKKLKKTGQLDELEKAITTQNVNTKCITIPRSLDGRLQVSHRKGLPHVIYCRLWRWPDLHSHHELRAMELCEFAFNMKKDEVCVNPYHYQRVETPVLPPVLVPRHTEIPAEFPPLDDYSHSIPENTNFPAGIEPQSNIPETPPPGYLSEDGETSDHQMNHSMDAGSPNLSPNPMSPAHNNLDLQPVTYCEPAFWCSISYAELNQRVGETFHASQPSMTVDGFTDPSNSERFCLGLLSNVNRNAAVELTRRHIGRGVRLYYIGGEVFAECLSDSAIFVQSPNCNQRYGWHPATVCKIPPGCNLKIFNNQEFAALLAQSVNQGFEAVYQLTRMCTIRMSFVKGWGAEYRRQTVTSTPCWIELHLNGPLQWLDKVLTQMGSPSIRCSSVS
notes: as for B1
On to B6, for which the “percent binding relative to wild-type Smad3” value in experiment [5] stood at 28%; in experiment [6] it was 74%.

B7: Renilla luciferase-Smad3 R243A (natural protein, UniProt P84022 1-425, looked up)
chain: MSSILPFTPPIVKRLLGWKKGEQNGQEEKWCEKAVKSLVKKLKKTGQLDELEKAITTQNVNTKCITIPRSLDGRLQVSHRKGLPHVIYCRLWRWPDLHSHHELRAMELCEFAFNMKKDEVCVNPYHYQRVETPVLPPVLVPRHTEIPAEFPPLDDYSHSIPENTNFPAGIEPQSNIPETPPPGYLSEDGETSDHQMNHSMDAGSPNLSPNPMSPAHNNLDLQPVTYCEPAFWCSISYYELNQAVGETFHASQPSMTVDGFTDPSNSERFCLGLLSNVNRNAAVELTRRHIGRGVRLYYIGGEVFAECLSDSAIFVQSPNCNQRYGWHPATVCKIPPGCNLKIFNNQEFAALLAQSVNQGFEAVYQLTRMCTIRMSFVKGWGAEYRRQTVTSTPCWIELHLNGPLQWLDKVLTQMGSPSIRCSSVS
notes: as for B1
Consider B7, for which the “percent binding relative to wild-type Smad3” value in experiment [5] worked out at 19%; in experiment [6], 72%.
